Data on one protein can be found in US20140256614.

The target in this series is T1, MK2-activating peptide (transduction domain YARAAARQARA coupled to a Kaposin-derived region).
T1 chain: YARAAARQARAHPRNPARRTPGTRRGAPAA

B1: MK2 (endogenous, in mouse embryonic fibroblasts, MEF) (protein)
chain: MLSGSPGQTPPAPFPSPPPPAPAQPPPPFPQFHVKSGLQIRKNAITDDYKVTSQVLGLGINGKVLRIFDKRTQQKFALKMLQDCPKARREVELHWRASQCPHIVHIVDVYENLYAGRKCLLIVMECLDGGELFSRIQDRGDQAFTEREASEIMKSIGEAIQYLHSINIAHRDVKPENLLYTSKRPNAILKLTDFGFAKETTSHNSLTTPCYTPYYVAPEVLGPEKYDKSCDMWSLGVIMYILLCGYPPFYSNHGLAISPGMKTRIRMGQYEFPNPEWSEVSEEVKMLIRNLLKTEPTQRMTITEFMNHPWIMQSTKVPQTPLHTSRVLKEDKERWEDVKEEMTSALATMRVDYEQIKIKKIEDASNPLLLKRRKKARAVEDAALAH
Take B1: the “phosphorylated HSP27 by immunoblot, time course at 50 µM peptide, MEF” value was “significant MK2 activation was observed by 15 minutes of treatment”.
